Source: patent US20220204580A1 (AstraZeneca / MedImmune, published 2022)
Values belong to the binder of their own block, whether it stands above or below them. Numbered stars: 1 amine (or outer) side, 2 acyl side, 3 side chain; on linkers, the order of the positions; unused ones are H or OH. Bridge positions count the residues as written; N and C are the ends. Square brackets hold non-standard residues; d marks the D form. Side chains are listed from the residue outwards. Ends that are not written are not given here. * marks the point of attachment. C18 diacid = O=C(O)CCCCCCCCCCCCCCCCC(=O)*; γGlu = O=C(O)[C@H](CCC(=O)[*:2])N[*:1]; Aib = CC(C)(N)C(=O)O

Key:
Assay in all cases: cell-based or functional assay
[1] = target: T1, rat amylin receptor (calcitonin receptor co-expressed with receptor activity modifying protein, RAMP3) (rat, UniProt P32214 25-516; Q9JJ73 23-147)
T1 sequence (looked up) 1: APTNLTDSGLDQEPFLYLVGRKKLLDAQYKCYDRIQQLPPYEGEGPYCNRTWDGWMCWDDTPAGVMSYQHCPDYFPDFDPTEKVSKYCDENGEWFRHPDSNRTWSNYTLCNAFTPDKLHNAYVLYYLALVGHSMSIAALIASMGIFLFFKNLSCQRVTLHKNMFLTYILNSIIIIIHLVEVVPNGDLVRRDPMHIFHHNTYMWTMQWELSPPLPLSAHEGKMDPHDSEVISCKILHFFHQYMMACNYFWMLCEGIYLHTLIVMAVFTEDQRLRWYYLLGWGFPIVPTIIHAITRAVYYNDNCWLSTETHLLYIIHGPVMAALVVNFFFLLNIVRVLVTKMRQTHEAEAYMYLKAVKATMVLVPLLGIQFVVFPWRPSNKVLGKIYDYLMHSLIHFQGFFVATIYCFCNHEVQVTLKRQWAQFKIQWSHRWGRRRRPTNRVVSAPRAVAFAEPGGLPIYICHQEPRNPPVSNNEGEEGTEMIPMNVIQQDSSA
T1 sequence (looked up) 2: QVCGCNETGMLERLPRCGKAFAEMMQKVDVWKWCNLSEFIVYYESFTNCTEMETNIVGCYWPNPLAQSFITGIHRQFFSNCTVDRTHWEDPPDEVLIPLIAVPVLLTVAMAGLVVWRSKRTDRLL

[2] = target: T2, rat calcitonin receptor (rat, UniProt P32214 25-516)
T2 sequence (looked up): T1 sequence (looked up) 1

[3] = target: T3, human amylin receptor (calcitonin receptor co-expressed with receptor activity modifying protein, RAMP3) (human, UniProt P30988 25-474; O60896 24-148)
T3 sequence (looked up) 1: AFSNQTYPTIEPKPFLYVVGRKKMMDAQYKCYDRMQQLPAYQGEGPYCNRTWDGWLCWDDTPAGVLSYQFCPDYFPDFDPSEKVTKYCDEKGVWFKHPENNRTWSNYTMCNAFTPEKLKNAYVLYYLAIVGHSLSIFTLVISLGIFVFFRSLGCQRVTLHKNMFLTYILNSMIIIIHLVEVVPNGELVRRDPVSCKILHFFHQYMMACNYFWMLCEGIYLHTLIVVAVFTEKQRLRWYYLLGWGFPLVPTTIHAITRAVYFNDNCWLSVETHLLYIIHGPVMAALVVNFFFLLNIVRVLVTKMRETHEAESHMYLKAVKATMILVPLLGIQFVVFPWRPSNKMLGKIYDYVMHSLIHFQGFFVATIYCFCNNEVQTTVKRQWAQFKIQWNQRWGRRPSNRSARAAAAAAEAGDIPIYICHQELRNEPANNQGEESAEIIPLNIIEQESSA
T3 sequence (looked up) 2: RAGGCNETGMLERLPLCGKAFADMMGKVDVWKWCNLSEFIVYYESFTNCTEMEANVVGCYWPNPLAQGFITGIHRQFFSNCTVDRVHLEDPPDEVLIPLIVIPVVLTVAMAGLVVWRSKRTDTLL

[4] = target: T4, human calcitonin receptor (human, UniProt P30988 25-474)
T4 sequence (looked up): T3 sequence (looked up) 1

EC50 (cAMP production) [1]: 0.0059 nM
EC50 (cAMP production) [2]: 0.514 nM
EC50 (cAMP production) [3]: 0.259 nM
Ratio (EC50 hCTR / EC50 hAMYR3) [3]: 55
EC50 (cAMP production) [4]: 14.2 nM
B1: Peptide 35 (SEQ ID NO: 35) (peptide)
peptide: K([γGlu-C18 diacid])KCNTATCATQRLANFLVHSS[Aib]NFGPILPPTNVGSNTY-NH2
modifications: disulfide 3-8; N-terminus assumed
SMILES: CC[C@H](C)[C@H](NC(=O)[C@@H]1CCCN1C(=O)CNC(=O)[C@H](Cc1ccccc1)NC(=O)[C@H](CC(N)=O)NC(=O)C(C)(C)NC(=O)[C@H](CO)NC(=O)[C@H](CO)NC(=O)[C@H](Cc1c[nH]cn1)NC(=O)[C@@H](NC(=O)[C@H](CC(C)C)NC(=O)[C@H](Cc1ccccc1)NC(=O)[C@H](CC(N)=O)NC(=O)[C@H](C)NC(=O)[C@H](CC(C)C)NC(=O)[C@H](CCCNC(=N)N)NC(=O)[C@H](CCC(N)=O)NC(=O)[C@@H](NC(=O)[C@H](C)NC(=O)[C@@H]1CSSC[C@H](NC(=O)[C@H](CCCCN)NC(=O)[C@@H](N)CCCCNC(=O)CC[C@H](NC(=O)CCCCCCCCCCCCCCCCC(=O)O)C(=O)O)C(=O)N[C@@H](CC(N)=O)C(=O)N[C@@H]([C@@H](C)O)C(=O)N[C@@H](C)C(=O)N[C@@H]([C@@H](C)O)C(=O)N1)[C@@H](C)O)C(C)C)C(=O)N[C@@H](CC(C)C)C(=O)N1CCC[C@H]1C(=O)N1CCC[C@H]1C(=O)N[C@H](C(=O)N[C@@H](CC(N)=O)C(=O)N[C@H](C(=O)NCC(=O)N[C@@H](CO)C(=O)N[C@@H](CC(N)=O)C(=O)N[C@H](C(=O)N[C@@H](Cc1ccc(O)cc1)C(N)=O)[C@@H](C)O)C(C)C)[C@@H](C)O

EC50 (cAMP production) [1]: 0.012 nM
EC50 (cAMP production) [2]: 0.782 nM
EC50 (cAMP production) [3]: 0.228 nM
Ratio (EC50 hCTR / EC50 hAMYR3) [3]: 15
EC50 (cAMP production) [4]: 3.33 nM
B2: Peptide 40 (SEQ ID NO: 40) (peptide)
peptide: K([γGlu-C18 diacid])KCNTATCATQRLANFLVHSS[Aib]NFGPILPPTHVGSNTY-NH2
modifications: disulfide 3-8; N-terminus assumed
SMILES: CC[C@H](C)[C@H](NC(=O)[C@@H]1CCCN1C(=O)CNC(=O)[C@H](Cc1ccccc1)NC(=O)[C@H](CC(N)=O)NC(=O)C(C)(C)NC(=O)[C@H](CO)NC(=O)[C@H](CO)NC(=O)[C@H](Cc1c[nH]cn1)NC(=O)[C@@H](NC(=O)[C@H](CC(C)C)NC(=O)[C@H](Cc1ccccc1)NC(=O)[C@H](CC(N)=O)NC(=O)[C@H](C)NC(=O)[C@H](CC(C)C)NC(=O)[C@H](CCCNC(=N)N)NC(=O)[C@H](CCC(N)=O)NC(=O)[C@@H](NC(=O)[C@H](C)NC(=O)[C@@H]1CSSC[C@H](NC(=O)[C@H](CCCCN)NC(=O)[C@@H](N)CCCCNC(=O)CC[C@H](NC(=O)CCCCCCCCCCCCCCCCC(=O)O)C(=O)O)C(=O)N[C@@H](CC(N)=O)C(=O)N[C@@H]([C@@H](C)O)C(=O)N[C@@H](C)C(=O)N[C@@H]([C@@H](C)O)C(=O)N1)[C@@H](C)O)C(C)C)C(=O)N[C@@H](CC(C)C)C(=O)N1CCC[C@H]1C(=O)N1CCC[C@H]1C(=O)N[C@H](C(=O)N[C@@H](Cc1c[nH]cn1)C(=O)N[C@H](C(=O)NCC(=O)N[C@@H](CO)C(=O)N[C@@H](CC(N)=O)C(=O)N[C@H](C(=O)N[C@@H](Cc1ccc(O)cc1)C(N)=O)[C@@H](C)O)C(C)C)[C@@H](C)O

EC50 (cAMP production) [1]: 0.0051 nM
EC50 (cAMP production) [2]: 0.0203 nM
EC50 (cAMP production) [3]: 0.19 nM
Ratio (EC50 hCTR / EC50 hAMYR3) [3]: 6
EC50 (cAMP production) [4]: 1.05 nM
B3: Peptide 38 (SEQ ID NO: 38) (peptide)
peptide: K([γGlu-C18 diacid])KCNTATCATQRLAEFLVHSS[Aib]NFGPILPPTNVGSNTY-NH2
modifications: disulfide 3-8; N-terminus assumed
SMILES: CC[C@H](C)[C@H](NC(=O)[C@@H]1CCCN1C(=O)CNC(=O)[C@H](Cc1ccccc1)NC(=O)[C@H](CC(N)=O)NC(=O)C(C)(C)NC(=O)[C@H](CO)NC(=O)[C@H](CO)NC(=O)[C@H](Cc1c[nH]cn1)NC(=O)[C@@H](NC(=O)[C@H](CC(C)C)NC(=O)[C@H](Cc1ccccc1)NC(=O)[C@H](CCC(=O)O)NC(=O)[C@H](C)NC(=O)[C@H](CC(C)C)NC(=O)[C@H](CCCNC(=N)N)NC(=O)[C@H](CCC(N)=O)NC(=O)[C@@H](NC(=O)[C@H](C)NC(=O)[C@@H]1CSSC[C@H](NC(=O)[C@H](CCCCN)NC(=O)[C@@H](N)CCCCNC(=O)CC[C@H](NC(=O)CCCCCCCCCCCCCCCCC(=O)O)C(=O)O)C(=O)N[C@@H](CC(N)=O)C(=O)N[C@@H]([C@@H](C)O)C(=O)N[C@@H](C)C(=O)N[C@@H]([C@@H](C)O)C(=O)N1)[C@@H](C)O)C(C)C)C(=O)N[C@@H](CC(C)C)C(=O)N1CCC[C@H]1C(=O)N1CCC[C@H]1C(=O)N[C@H](C(=O)N[C@@H](CC(N)=O)C(=O)N[C@H](C(=O)NCC(=O)N[C@@H](CO)C(=O)N[C@@H](CC(N)=O)C(=O)N[C@H](C(=O)N[C@@H](Cc1ccc(O)cc1)C(N)=O)[C@@H](C)O)C(C)C)[C@@H](C)O

EC50 (cAMP production) [1]: 0.0082 nM
EC50 (cAMP production) [2]: 0.925 nM
EC50 (cAMP production) [3]: 0.178 nM
Ratio (EC50 hCTR / EC50 hAMYR3) [3]: 7
EC50 (cAMP production) [4]: 1.18 nM
B4: Peptide 41 (SEQ ID NO: 41) (peptide)
peptide: K([γGlu-C18 diacid])KCNTATCATQRLANFLVHSS[Aib]NFGPILPPTEVGSNTY-NH2
modifications: disulfide 3-8; N-terminus assumed
SMILES: CC[C@H](C)[C@H](NC(=O)[C@@H]1CCCN1C(=O)CNC(=O)[C@H](Cc1ccccc1)NC(=O)[C@H](CC(N)=O)NC(=O)C(C)(C)NC(=O)[C@H](CO)NC(=O)[C@H](CO)NC(=O)[C@H](Cc1c[nH]cn1)NC(=O)[C@@H](NC(=O)[C@H](CC(C)C)NC(=O)[C@H](Cc1ccccc1)NC(=O)[C@H](CC(N)=O)NC(=O)[C@H](C)NC(=O)[C@H](CC(C)C)NC(=O)[C@H](CCCNC(=N)N)NC(=O)[C@H](CCC(N)=O)NC(=O)[C@@H](NC(=O)[C@H](C)NC(=O)[C@@H]1CSSC[C@H](NC(=O)[C@H](CCCCN)NC(=O)[C@@H](N)CCCCNC(=O)CC[C@H](NC(=O)CCCCCCCCCCCCCCCCC(=O)O)C(=O)O)C(=O)N[C@@H](CC(N)=O)C(=O)N[C@@H]([C@@H](C)O)C(=O)N[C@@H](C)C(=O)N[C@@H]([C@@H](C)O)C(=O)N1)[C@@H](C)O)C(C)C)C(=O)N[C@@H](CC(C)C)C(=O)N1CCC[C@H]1C(=O)N1CCC[C@H]1C(=O)N[C@H](C(=O)N[C@@H](CCC(=O)O)C(=O)N[C@H](C(=O)NCC(=O)N[C@@H](CO)C(=O)N[C@@H](CC(N)=O)C(=O)N[C@H](C(=O)N[C@@H](Cc1ccc(O)cc1)C(N)=O)[C@@H](C)O)C(C)C)[C@@H](C)O
